Experiment: soluble on expression in E. coli; label from the status in PepcDB or PDB records
With “MSLIAVLRINHRPFRDKRITTHVALTARAFGASSILVDEKDETLEQTINKVVENFGGNFFIKSGVDWKREFRNFKGIRVHLTMYGRPLEDVVKEIRESKKDVMILVGSEKVPFEAYEIADYNVSVTNQPISEVSALAIFLDRFYDGEELNWRFTGKINVYPSERGKKVKIIPDEQGCLDLLYKYGASDYLINHVKSVKELAVAIAKKTNADINLVTAGALLHDIGRTQVQGITHAVVGADILRREGIDDRVVSIVEKHIGAGIQSEEAVKLGLPPDNYVPETIEEMIVAHADNLFAGDKRLKLQQVVDNYRKKGLEDAAERIAKLHKFLSTVIGQDMDEIEGHHHHHH” the “soluble on expression in E. coli” value was “soluble”.
In the case of “MSLIEPDHPQLSIGQQCKLLSISRSSFYYTPKGETDQNLSLMRQIDEQFLETPFFGVRQMTWHLRNEHHLVNEKRIRRLMRLMGLMPIYQKPNNTSRPGRGHKTYPYLLRGLRVDRPNQVWCSDITYLPMRRGFLYLVAIMDWHTRKVLAWRISNTLEADFCVEALNEAIHKFGPPEIMNTDQGSQFTSFAWTDRLRRSGVRISMDGKGRFLDNIFIERLWRTLKYECVYLHAWETGSEAKAGIRKWMTFYNSASLRPSFYVVEGNRFCEGHHHHHH”, the “soluble on expression in E. coli” value is reported as “not soluble”.
In the case of “MSLIEVDLLNNDNLKKKTSGFTILSGDSTDGHGGYGAGVLSLDNVTPVFVDPEEERAFVDLGALHARSEVEKRIKFLPNKEEVPNGKLYWLVWVTIDSKKEGPYYAGVAGCEMTVDREIRRGYKSMPEHVNKMDKSIKGKIVVDDMDERSKRILGEYLKSFNEDMWKRSEPELREKLLGEKEGHHHHHH”, the “soluble on expression in E. coli” value is reported as “soluble”.
For “MSLIFSKIRGNFQDLKDGKISVKQGLITKSDAIELFNIKNWKDYLKLFSIASEVRDFFKNEIEITSTVHVTNICSVTPKCAYCGFAAGTSSEGYVEPFRSNDEQIKSSAAAVENSGIKRVSCSSGHGYSGKEVIRALKAVKSASNLEVLVNAGADITEDCISELKKYNIDTICCNLETTNKSVFNKVKPGENLDDRISVCKMVKKHGIELSSGLLIGIGESYEDRAEHLFFLKELDVEEIPVMGFNPYKDTPMEQCPKCSAIEQAKTIAIARLLFPNIRITSPTPTMGPELAQFALLGGASNIATVIPDNHPMNIKGVGNPKTGNLNDVICMMKELGLTPKLNEGHHHHHH”, the “soluble on expression in E. coli” value was “soluble”.
In the case of “MSLIKIGVIADDFTGATDIASFLVENGLPTVQINGVPTGKMPEAIDALVISLKTRSCPVVEATQQSLAALSWLQQQGCKQIYFKYCSTFDSTAKGNIGPVTDALMDALDTPFTVFSPALPVNGRTVYQGYLFVMNQLLAESGMRHHPVNPMTDSYLPRLVEAQSTGRCGVVSAHVFEQGVDAVRQELARLQQEGYRYAVLDALTEHHLEIQGEALRDAPLVTGGSGLAIGLARQWAQENGNQARKAGRPLAGRGVVLSGSCSQMTNRQVAHYRQIAPAREVDVARCLSIETLAAYAHELAEWVLGQESVLAPLVFATASTDALAAIQQQYGAQKASQAVETLFSQLAARLAAEGVTRFIVAGGETSGVVTQSLGIKGFHIGPTISPACREGHHHHHH”, the “soluble on expression in E. coli” value is reported as “not soluble”.
With “MSLIKITIGICEYPSVLKSAVYGFEEMFLLANRICKEQNIEVVFEPILIPHTGLTAERLTVVLLPPASLDNYYLAPDDALIRWLKAHYSQGTVLSSACAGVFILAATNLIDSREVTTHWALAETFSQAFPSIALDSNKILINHGDIVTAGGMMSWLDLGFELIAKYASPGVVRQLGKTLVIDTAQRAQSYYQQFHPSFSHGDYAIVSIQQIMHQRYAEPLSIKQLAKQANLTERTMQRRFLKATGYNPNQYLQRLRIQSACHLLESTQHSFDSISHQVGYEDTSACRKVFINVIGLTPREFRKRFAEGHHHHHH” the “soluble on expression in E. coli” value was “soluble”.
With “MSLIKLVAIDLDGTLLNSQKEISLRNKQALMAAKQAGVKVVICTGRPLAAIGPYLEELGLQDEGDYSITFNGGLVQKNDTGAIIEKTLMPLEAIHELYQLATTLNMPFDVLSDEVVMQLPSAPNYPSIYSSLNKLLTFESYKLEELTPNRIYNKVVVAIDEAYLNERIKEIPASFYERFEIIKTRNNLLEFMPKGITKAYGISLLAKDLGIRAEEIMTLGDEENDLPMIEYAGLGVAMANAIPLVKEAADVVTDTNDQDGVAKAVEKYILTPLEGGEGHHHHHH” the “soluble on expression in E. coli” value was “soluble”.
In the case of “MSLIKPDHPRLSILRQCALVSLSRSSFYYQEKGESPLNLKLMELIDRQFMETPFYGARQMARHLRNHEGYCVGRKKICRLMAKMGLVPIYQRPRTTKPHPEHVKYPYLLRDLVIDKPNQVWCTDITYIPMRRGFLYLVAIMDWHSRCVLSWRLSNTMEADFCVEALEEALNKFGKPEIFNTDQGSQFTSQSFTETLKEADIKISMDGKGAWTDNVFIERLWRSLKYECVYLHAFETGSKAHHGIGHWIQFYNERRPHSSLGGLSPNSVYETELWSEAAEGHHHHHH”, the “soluble on expression in E. coli” value is reported as “not soluble”.

— the DeepSol protein solubility set
